Publication PMC10709299

Target: G6PD Meyer (Arg219Gly) (human) (UniProt P11413)
Assay: SEC; Superdex 200 Increase 10/300, 100 µg recombinant protein loaded, 50 mM Tris-HCl pH 7.5, 150 mM NaCl, 0.5 ml/min; column calibrated with Gel Filtration Standard (Biorad)

Work on “G6PD Meyer (Arg219Gly) (from UniProt P11413-3 1-545) (enzyme)” yielded a stoichiometry N of 2.
